The values below come from IntAct's records for PubMed 18309292.

B1: Ras-related protein Rap-1b (Homo sapiens), P61224 (parent)
chain: MREYKLVVLGSGGVGKSALTVQFVQGIFVEKYDPTIEDSYRKQVEVDAQQCMLEILDTAGTEQFTAMRDLYMKNGQGFALVYSITAQSTFNDLQDLREQILRVKDTDDVPMILVGNKCDLEDERVVGKEQGQNLARQWNNCAFLESSAKSKINVNEIFYDLVRQINRKTPVPGKARKKSSCQLL

The first test covers variants of B1. The settings on record: with rpgp1_human RAP1GAP.
Consider MREYKLVVLGSGGVGKSALTVQFVQGIFVEKYDPTIEDSYRKQVEVDAQQCMLEILDTAGTEEFTAMRDLYMKNGQGFALVYSITAQSTFNDLQDLREQILRVKDTDDVPMILVGNKCDLEDERVVGKEQGQNLARQWNNCAFLESSAKSKINVNEIFYDLVRQINRKTPVPGKARKKSSCQLL [Q63E], for which the “effect of a mutation on the interaction” value is “disrupting interaction”.

Another test covers variants of B1. The settings on record: with rpgp1_human RAP1GAP. This is another data set of the same source.
Regarding MREYKLVVLGSGGVGKSALTVQFVQGIFVEKYDPTIEDSYRKQVEVDAQQCMLEILDTAGTEQATAMRDLYMKNGQGFALVYSITAQSTFNDLQDLREQILRVKDTDDVPMILVGNKCDLEDERVVGKEQGQNLARQWNNCAFLESSAKSKINVNEIFYDLVRQINRKTPVPGKARKKSSCQLL [F64A], the “effect of a mutation on the interaction” value was “disrupting interaction”.
